Results from US20190144863, “MODULATING THE CELLULAR STRESS RESPONSE” (The General Hospital Corporation, published 2019).

B1: B2 RNA domain I (ssRNA)
RNA: GGGGCUGGUGAGAUGGCUCAGUGGGUAAGAGCACCCGACUGCUCUUCCGAAGGUCCGGAGUUCAAAUCCCAG
modifications: [none]
B2: B2 RNA domain I+II (ssRNA)
RNA: GGGGCUGGUGAGAUGGCUCAGUGGGUAAGAGCACCCGACUGCUCUUCCGAAGGUCCGGAGUUCAAAUCCCAGCAACCACAUGGUGGCUCACAACCAUCCGUAACG
modifications: [none]
B3: B2 RNA full length (ssRNA)
RNA: GGGGCUGGUGAGAUGGCUCAGUGGGUAAGAGCACCCGACUGCUCUUCCGAAGGUCCGGAGUUCAAAUCCCAGCAACCACAUGGUGGCUCACAACCAUCCGUAACGAGAUCUGACUCCCUCUUCUGGAGUGUCUGAAGACAGCUACAGUGUACUUACAUAUAAUAAAUAAAUAAAUCUUUAAAAAAAAA

Experiments:
EZH2 [1] = target: T1, EZH2 (UniProt Q61188 Q61188:1-746); assay: filter; double-filter binding, same buffer with yeast tRNA; extremely low affinity; conditions: label: radiolabelled (cpm)
T1 sequence (Q61188 whole entry, one chain of several): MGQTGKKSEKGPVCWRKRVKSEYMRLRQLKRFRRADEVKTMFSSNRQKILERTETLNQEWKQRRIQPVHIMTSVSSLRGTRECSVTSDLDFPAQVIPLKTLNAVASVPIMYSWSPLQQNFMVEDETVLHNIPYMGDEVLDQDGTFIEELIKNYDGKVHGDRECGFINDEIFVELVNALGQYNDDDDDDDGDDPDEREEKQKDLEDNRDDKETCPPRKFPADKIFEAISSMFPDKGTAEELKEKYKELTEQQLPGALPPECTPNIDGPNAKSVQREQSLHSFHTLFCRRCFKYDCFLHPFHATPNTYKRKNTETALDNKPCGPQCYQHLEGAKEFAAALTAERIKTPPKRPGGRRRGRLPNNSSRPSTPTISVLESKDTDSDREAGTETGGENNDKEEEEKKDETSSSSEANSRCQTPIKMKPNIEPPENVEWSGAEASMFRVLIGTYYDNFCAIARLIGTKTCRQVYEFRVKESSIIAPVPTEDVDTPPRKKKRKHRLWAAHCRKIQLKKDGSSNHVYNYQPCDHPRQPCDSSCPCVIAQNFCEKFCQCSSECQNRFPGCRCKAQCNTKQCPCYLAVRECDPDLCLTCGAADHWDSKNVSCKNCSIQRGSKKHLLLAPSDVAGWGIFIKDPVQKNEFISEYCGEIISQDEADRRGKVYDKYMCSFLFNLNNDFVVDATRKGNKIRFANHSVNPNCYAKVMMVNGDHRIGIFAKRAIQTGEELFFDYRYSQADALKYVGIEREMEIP

EZH2 [2] = target: T1, EZH2; assay: FP filter; double-filter binding; 50 mM Tris pH 8.0, 100 mM NaCl, 5 mM MgCl2, 50 ng/ul yeast tRNA, 30 C; conditions: folded; critical region nt 81-131

Row | Binder | Kd (EZH2 [1]) | Kd (EZH2 [2])
1 | CGUAACGAGAUCUGACUCCCUCUUCUGGAGUGUCUGAAGACA (ssRNA, [none]) [B2 RNA domain III] | > 3000 nM | 
2 | B1 | > 3000 nM | 
3 | B2 | > 3000 nM | 
4 | B3 |  | 423 nM
